Data on 1 substance can be found in paper PMC4643928.

What all share (experiment): fluorescence anisotropy
Conditions in all cases: FA: 20 mM Tris-HCl pH 7.5, 70 mM KCl, 1 mM MgCl2, 10% glycerol, 50 nM DNA, EMSA: 20 mM Tris-HCl pH 7.5, 300 mM KCl, 4 mM MgCl2, 5 mM DTT, 1 nM …

The subject of data set [1] is EcGyrA-CTD(ΔT) (Escherichia coli).
The subject of data set [2] is MBP-PfGyrA-CTD(ΔN) (Plasmodium falciparum).
For data set [3], the system named is MBP-PfGyrA-CTD (Plasmodium falciparum).

For 37-bp dsDNA, the equilibrium dissociation constant (Kd) in data set [1] is 1110 nM; in data set [2], 222 nM; in data set [3] it was 205 nM.
